According to US20070179113A1, “GM-CSF gene therapy for Crohn's disease using an improved regulated expression system” (Schering Aktiengesellachaft, priority 2005, published 2007):

B1: non-pegylated mGM-CSF: yeast expressed non-pegylated murine GM-CSF protein (protein, UniProt P01587 18-141, looked up)
Granulocyte-macrophage …: APTRSPITVTRPWKHVEAIKEALNLLDDMPVTLNEEVEVVSNEFSFKKLTCVQTRLKIFEQGLRGNFTKLKGALNMTASYYQTYCPPTPETDCETQVTTYADFIDSLKTFLTDIPFECKKPGQK
B2: pegylated mGM-CSF: pegylated murine GM-CSF protein (conjugate, UniProt P01587 18-141, looked up)
Granulocyte-macrophage …: B1 Granulocyte-macrophage …
modifications: PEG
notes: pegylated murine GM-CSF protein

Experiments:
[1] = Pharmacokinetic study of mGM-CSF protein formulations, serum mGM-CSF ELISA; format: in vivo, BalbC mice; details: i.m. injection
Method: FIG. 40 illustrates the use of ELISA for detection of murine GM-CSF. BalbC mice (n=5/group) were injected i.m. with 5 or 10 μg non-pegylated, or 5 μg pegylated mGM-CSF. Mice received either a single injection or 4 daily injections. Serum was obtained 1, 3, 6, and 12 hours following the single injection or the fourth injection. mGM-CSF levels in serum were measured using the ELISA from R&D (Minneapolis).
i. GM-CSF ELISA validation. A commercially available ELISA (R&D, Minneapolis) was validated for the detection of murine (m)GM-CSF in serum. In a pharmacokinetic study two formulations of mGM-CSF protein, non-pegylated or pegylated, were injectedi.m. and serum samples were assayed for mGM-CSF. […] The levels of non-pegylated mGM-CSF dropped rapidly within 3 hours following administration, whereas pegylated mGM-CSF was detectable over a 12 hour period.

[2] = tested on: DSS-induced colitis in Balb/C mice; test: DSS-induced colitis model (5% DSS), validation, Disease Activity Index; format: in vivo; details: daily treatment, Mesopram/Metronidazole 50 mg/kg IP, mGM-CSF 5 μg non-pegylated, 5 or 10 μg pegylated
Method: Disease was induced in BalbC mice (N=10/group) by DSS (5%) applied daily in the drinking water. Mesopram, Metronidazole, or yeast expressed non-pegylated respectively pegylated mGM-CSF, was administered daily over a period of 8 days. Clinical scores (Daily Activity Index (DAI), a cumulative index of: weight loss, stool consistency, and rectal bleeding) were recorded daily.
(§1) Likewise, the DSS-induced mouse colitis model is useful for evaluating therapies for UC, IBD and CD. Disease is induced in mice by daily administration of 5% or 7% dextran sodium sulfate (DSS) in the drinking water over 8 days. Disease progression is monitored by the Daily Activity Index (DAI), a cumulative index of: weight loss, stool consistency, and rectal bleeding, which mimics the symptoms of UC, IBD and/or CD.
vi. DSS-induced colitis model. Prior to the gene delivery study the model was established and validated in Balb/C mice using non-pegylated and pegylated mGM-CSF protein. Disease was induced in Balb/C mice with 5% dextran sodium sulfate (DSS), provided in the drinking water every day over a period of 8 days. As the main endpoint, the Disease Activity Index (DAI, a cumulative index of: weight loss, stool consistency, and rectal bleeding) was recorded daily. […]

DSS-induced colitis = DSS-induced colitis model (7% DSS), proof of concept with pCMV-GMCSF plasmid DNA; format: in vivo, mice; details: plasmid single injection day 0 + EP, drugs and protein daily
Method: Two concentrations of pCMV-mGMCSF were tested side by side with a control plasmid (pNull) and two mGM-CSF protein formulations, non-pegylated and pegylated in the DSS-induced colitis model (N=10/group). A single plasmid DNA injection was administered at day 0 followed by electroporation. Murine GM-CSF protein was injected s.c. daily. Disease was induced with 7% DSS in the drinking water and clinical scores (DIA) were recorded daily.
as §1
vii. […] In this study the efficacy of pGMCSF plasmid DNA was evaluated side by side with Mesopram, Metronidazole, non-pegylated or pegylated mGM-CSF. The disease was induced using 7% DSS, administered daily in the drinking water. Mesopram, Metronidazole and mGM-CSF protein were administered daily, using the same dosing regimen as described for the validation study. pGMCSF plasmid DNA was injected at day 0 followed by electroporation. […]

[3] = mGM-CSF concentration in sera at day 8 of the DSS colitis study; details: final day of DSS study
Method: At day 8, the final day of the study, mGM-CSF concentrations were measured in sera of all mice.

| Molecule | time within which serum levels dropped rapidly following administration [1] | DAI score [2] | disease scores (DAI) (DSS-induced colitis) | GM-CSF in sera at day 8 [3] | period over which detectable in serum [1] |
| --- | --- | --- | --- | --- | --- |
| B1 | ≤ 3 h | significantly reduced | efficacious | could be measured | – |
| B2 | – | significantly reduced | efficacious | – | 12 h |
